According to US9340582B2, “Bioconjugates of synthetic apelin polypeptides” (NOVARTIS AG, priority 2013, dated 2016):
Bridge positions count the residues as written; N and C are the ends. Square brackets hold non-standard residues; d marks the D form. * marks the point of attachment. Propanoyl(3-maleimido) = O=C1C=CC(=O)N1CCC(=O)*; Nle = CCCC[C@H](N)C(=O)O; AEEA = NCCOCCOCC(=O)O

Assays:
[1] = Surrogate activity-based plasma stability assay; conditions: for Surrogate activity-based Plasma stability t½: Table 2
[2] = target: T1, hAPJ (Homo sapiens, UniProt P35414); assay: hAPJ Calcium Flux Assay; assay type: cell-based; conditions: Chem-5 APJ stable cells, FLIPR calcium flux; read-out: hAPJ Ca^2+ Flux EC50
T1 sequence (P35414 1-380): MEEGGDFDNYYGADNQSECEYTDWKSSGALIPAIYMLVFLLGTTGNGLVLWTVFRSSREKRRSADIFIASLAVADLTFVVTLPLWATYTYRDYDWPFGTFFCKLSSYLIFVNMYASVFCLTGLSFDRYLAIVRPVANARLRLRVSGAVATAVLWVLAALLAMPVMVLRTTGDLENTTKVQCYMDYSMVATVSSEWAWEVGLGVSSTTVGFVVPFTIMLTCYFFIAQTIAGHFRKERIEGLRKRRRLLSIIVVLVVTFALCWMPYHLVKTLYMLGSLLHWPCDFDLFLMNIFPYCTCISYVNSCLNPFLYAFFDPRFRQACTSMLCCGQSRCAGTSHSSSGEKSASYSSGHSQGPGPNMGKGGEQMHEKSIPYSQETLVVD
Experimental: Chem-5 APJ stable cells (Millipore #HTS068C) were plated in 384-well format with 10,000 cells/well in 25 ul growth media, then grown 24 hours in a 37° C. tissue culture incubator. One hour before the assay, 25 ul/well FLIPR Calcium 4 dye (Molecular Devices R8142) with 2.5 mM probenecid was added, and cells were incubated one hour in a 37° C. tissue culture incubator. Bioconjugates were solubilized in HBSS, HEPES & 0.1% BSA buffer, and serially-diluted 10-fold, from 50 uM to 5 pM, in triplicate. FLIPR Tetra was used to add bioconjugates to the cells with dye (1:5, for final bioconjugate concentrations ranging from 10 uM to 1 pM). FLIPR dye inside the cells emitted fluorescence after binding to calcium, while fluorescence from outside the cells was masked. […] Readings were done for 3 minutes total, beginning 10 seconds before the bioconjugate addition. Maximum-minimum values were calculated and plotted for each bioconjugate concentration, and GraphPad prism software was used to calculate EC50 values at the curve inflection points, for calcium flux stimulation by bioconjugates.

[3] = Plasma Stability Assay (LC-MS); assay type: in vitro ADME; conditions: Table 3, rat plasma, 37° C.
Experimental: • Materials: • Working solution: 1 mg/mL test article is prepared in Milli-Q water • Extraction solution: Methanol:Acetonitrile:Water (1:1:1) with 0.1% Formic Acid and 400 ng/mL Glyburide. • Plasma: Male Sprague-Dawley rat plasma (with sodium heparin), purchased from Bioreclamation LLC (Liverpool, N.Y.). • Whole blood: Male Sprague Dawley whole blood (with sodium heparin), purchased from Bioreclamation LLC (Liverpool, N.Y.) • Lung homogenate: Male rat Sprague Dawley lung was purchased from Bioreclamation LLC (Liverpool, N.Y.). The lung was homogenized using polytron homogenizer after addition of 5× volume of 1×PBS. The homogenate was centrifuged at 9000 rpm for 10 min at 4° C. The supernatant was centrifuged again at 3000 rpm for 30 min to make a clear supernatant. Protein concentration was determined using a commercial kit (Pierce, Thermo Scientific). Sample Preparation Procedure: (peptides)
Test article was prepared in one of the following biological matrices: heparinized rat plasma, heparinized rat whole blood or lung homogenate. The plasma and whole blood sample was prepared at 5000 ng/mL by adding 5 uL of 1 mg/mL Working solution to 995 uL of rat plasma or whole blood. […]

| EC50 [2] [nM] | Substance | Surrogate activity-based Plasma stability t½ [1] [h] | Surrogate Activity based Plasma stability t½ ([1]; Table 3) [h] | Plasma stability t½ [3] [h] |
| --- | --- | --- | --- | --- |
| – | Example 4: Fc-Apelin fusion SEQ ID NO: 98; linker GGGGSGGGGS, polypeptide QRPRLSHKGPMPF | 3.53 | – | – |
| 52 | Albumin-MPA-NHCH2CH2CH2−OCH2CH2OCH2CH2O-CH2CH2CH2NH-C(O)CH2CH2C═O-A-R-P-R-L-S-H-K-G-P-Nle-P-F-OH (ARPRLSHKGPLPF; albumin-MPA linker conjugate; Nle residue) [Example 3] | 0.405 | – | – |
| – | Albumin-MPA-O2Oc-O2Oc-O2Oc-O2Oc-Q-R-P-R-L-C*-H-F-G-P-Nle-C*-f-OH [Example 1] | >16.67 | – | – |
| 92.4 | Albumin-TPA-O2Oc-O2Oc-O2Oc-O2Oc-Q-R-P-R-L-C*-H-F-G-P-Nle-C*-f-OH [Example 2] | >16.67 | >16.67 | ~24 |
| – | Example 5: Fc-Apelin fusion SEQ ID NO: 99; linker GGGGSGGGGSGGGGS, polypeptide QRPRLSHKGPMPF | 5.57 | – | – |

| Substance | EC50 [2] [nM] | Surrogate activity-based Plasma stability t½ [1] [h] | Surrogate Activity based Plasma stability t½ ([1]; Table 3) [h] | Plasma stability t½ [3] [h] |
| --- | --- | --- | --- | --- |
| Albumin-MPA-O2Oc-O2Oc-O2Oc-O2Oc-Q-R-P-R-L-C*-H-F-G-P-Nle-C*-f-OH ({albumin-Propanoyl(3-maleimido)}-[AEEA][AEEA][AEEA][AEEA]QRPRLCHFGP[Nle]C[dF]-OH; disulfide 10-16; also: albumin conjugate) [Example 1] | 47.2 | – | – | – |
